According to PMC12867151:

Target: human immune complexes (ICs): heat-aggregated human IgG (human)

Substance | neutrophil adhesion on IC-coated microcapillaries with adhered platelets at 2 dyn/cm^2; neutrophils preincubated with a blocking antibody against FcγRIIA; inhibition against the isotype control (% inhibition of neutrophil adhesion) | neutrophil adhesion on IC-coated microcapillaries with adhered platelets at 2 dyn/cm^2; neutrophils preincubated with a blocking antibody against FcγRIIIB; inhibition against the isotype control (% inhibition of neutrophil adhesion)
Fcγ receptor 2a (FcγRIIA), human, on human platelets (from UniProt P12318 34-317) | 86.3 | –
FcγRIIIB, human, on neutrophils (from UniProt O75015 17-200) (receptor) | – | 63.8
